Results from patent US20220397533A1.

Experiments:
[1] = target: poly-L-lysine; assay: SPR imaging, PLL-coated Al microarray, chemokines spiked in artificial urine matrix; difference against CXCL10 as reference
[2] = target: poly-L-lysine; assay: SPR imaging, PLL-coated Al microarray, chemokines in PBS buffer; difference against CXCL10 as reference
[3] = target: biotinylated bovine serum albumin (bovine) (UniProt P02769); assay: SPR angular scanning on Al/Al2O3 film, streptavidin 500 µg/mL spiked in undiluted human serum, serum-only control subtracted
[4] = target: biotinylated bovine serum albumin (bovine) (UniProt P02769); assay: SPR angular scanning on Al/Al2O3 film, streptavidin 500 µg/mL in 1xPBS buffer

Chain of biotinylated bovine serum albumin (bovine) (P02769 25-607 limits assumed, form in doubt): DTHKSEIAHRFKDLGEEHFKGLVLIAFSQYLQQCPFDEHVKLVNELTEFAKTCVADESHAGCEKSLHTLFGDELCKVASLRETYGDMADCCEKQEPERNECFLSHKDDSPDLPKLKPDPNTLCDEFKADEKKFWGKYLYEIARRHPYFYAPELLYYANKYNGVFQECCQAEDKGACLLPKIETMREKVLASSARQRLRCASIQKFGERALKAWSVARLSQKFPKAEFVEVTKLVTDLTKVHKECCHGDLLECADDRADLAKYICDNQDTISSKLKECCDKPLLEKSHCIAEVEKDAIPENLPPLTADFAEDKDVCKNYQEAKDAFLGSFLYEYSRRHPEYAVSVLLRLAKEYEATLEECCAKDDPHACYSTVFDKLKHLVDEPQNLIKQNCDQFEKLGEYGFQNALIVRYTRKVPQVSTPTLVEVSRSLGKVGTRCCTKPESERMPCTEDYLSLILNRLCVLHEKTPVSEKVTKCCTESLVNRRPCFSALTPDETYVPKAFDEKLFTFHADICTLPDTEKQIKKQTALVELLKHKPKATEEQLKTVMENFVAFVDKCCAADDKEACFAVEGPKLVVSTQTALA

Row | Substance | relative difference in response between CXCL10 and CXCL8 (kinetic reflectivity shift) [1] | relative difference in response between CXCL10 and CXCL8 (kinetic reflectivity shift) [2] | specific binding signal (SPR angular shift) [3] | specific binding signal (SPR angular shift) [4]
1 | CXCL8 (from UniProt P10145 29-99) (ligand) | 0.68% | 0.25% | – | –
2 | streptavidin (from UniProt P22629 37-163) | – | – | 0.17 ° | 0.21 °
